Measured values from IntAct's records for PubMed 18354501.

B1: General transcription factor IIE subunit 1 (Homo sapiens), P29083 (parent)
chain: MADPDVLTEVPAALKRLAKYVIRGFYGIEHALALDILIRNSCVKEEDMLELLKFDRKQLRSVLNNLKGDKFIKCRMRVETAADGKTTRHNYYFINYRTLVNVVKYKLDHMRRRIETDERDSTNRASFKCPVCSSTFTDLEANQLFDPMTGTFRCTFCHTEVEEDESAMPKKDARTLLARFNEQIEPIYALLRETEDVNLAYEILEPEPTEIPALKQSKDHAATTAGAASLAGGHHREAWATKGPSYEDLYTQNVVINMDDQEDLHRASLEGKSAKERPIWLRESTVQGAYGSEDMKEGGIDMDAFQEREEGHAGPDDNEEVMRALLIHEKKTSSAMAGSVGAAAPVTAANGSDSESETSESDDDSPPRPAAVAVHKREEDEEEDDEFEEVADDPIVMVAGRPFSYSEVSQRPELVAQMTPEEKEAYIAMGQRMFEDLFE

Variants of: B1
Settings: with tf2h1_human GTF2H1, P32780
tf2h1_human GTF2H1, P32780, sequence (P32780 whole entry): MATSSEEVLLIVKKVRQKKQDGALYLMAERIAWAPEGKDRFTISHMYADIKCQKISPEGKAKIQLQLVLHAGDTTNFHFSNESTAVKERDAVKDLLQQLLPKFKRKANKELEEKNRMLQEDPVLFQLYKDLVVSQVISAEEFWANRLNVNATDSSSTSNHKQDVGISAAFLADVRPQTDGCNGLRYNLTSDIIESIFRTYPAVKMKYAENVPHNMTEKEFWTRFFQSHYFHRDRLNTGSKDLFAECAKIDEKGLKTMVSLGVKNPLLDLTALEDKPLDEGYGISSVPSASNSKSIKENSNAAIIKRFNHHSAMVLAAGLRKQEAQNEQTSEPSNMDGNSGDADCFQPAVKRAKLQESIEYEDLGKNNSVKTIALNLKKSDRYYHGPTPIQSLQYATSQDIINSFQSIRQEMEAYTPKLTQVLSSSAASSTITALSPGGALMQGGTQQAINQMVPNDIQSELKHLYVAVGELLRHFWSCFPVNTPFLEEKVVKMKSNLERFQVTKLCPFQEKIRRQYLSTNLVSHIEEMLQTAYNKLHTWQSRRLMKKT

effect of a mutation on the interaction	Variant
disrupting interaction	MADPDVLTEVPAALKRLAKYVIRGFYGIEHALALDILIRNSCVKEEDMLELLKFDRKQLRSVLNNLKGDKFIKCRMRVETAADGKTTRHNYYFINYRTLVNVVKYKLDHMRRRIETDERDSTNRASFKCPVCSSTFTDLEANQLFDPMTGTFRCTFCHTEVEEDESAMPKKDARTLLARFNEQIEPIYALLRETEDVNLAYEILEPEPTEIPALKQSKDHAATTAGAASLAGGHHREAWATKGPSYEDLYTQNVVINMDDQEDLHRASLEGKSAKERPIWLRESTVQGAYGSEDMKEGGIDMDAFQEREEGHAGPDDNEEVMRALLIHEKKTSSAMAGSVGAAAPVTAANGSDSESETSESDDDSPPRPAAVAVHKREEDEEEDDEFEEAADDPIVMVAGRPFSYSEVSQRPELVAQMTPEEKEAYIAMGQRMFEDLFE [V390A]

Variants of: B1
Settings: with tf2h1_human GTF2H1, P32780
Remark: another data set of the same source

effect of a mutation on the interaction	Variant
disrupting interaction	MADPDVLTEVPAALKRLAKYVIRGFYGIEHALALDILIRNSCVKEEDMLELLKFDRKQLRSVLNNLKGDKFIKCRMRVETAADGKTTRHNYYFINYRTLVNVVKYKLDHMRRRIETDERDSTNRASFKCPVCSSTFTDLEANQLFDPMTGTFRCTFCHTEVEEDESAMPKKDARTLLARFNEQIEPIYALLRETEDVNLAYEILEPEPTEIPALKQSKDHAATTAGAASLAGGHHREAWATKGPSYEDLYTQNVVINMDDQEDLHRASLEGKSAKERPIWLRESTVQGAYGSEDMKEGGIDMDAFQEREEGHAGPDDNEEVMRALLIHEKKTSSAMAGSVGAAAPVTAANGSDSESETSESDDDSPPRPAAVAVHKREEDEEEDDEAEEVADDPIVMVAGRPFSYSEVSQRPELVAQMTPEEKEAYIAMGQRMFEDLFE [F387A]
